Laboratory results from paper PMC8155012, “Architecture of the Sema3A/PlexinA4/Neuropilin tripartite complex” (Nature Communications, 2021).

T1: FLAG-tagged PlexinA4 extracellular region (mouse, UniProt Q80UG2 33-1226)
T1 construct: mouse PlexinA4 residues 33–1226, extracellular region; FLAG inserted immediately after the signal peptide; also called PlexinA4-WT; source: Expi293F, purified from medium (Ni-NTA, Superose 6); not shown: FLAG, N-terminal, kept
T1 sequence (looked up): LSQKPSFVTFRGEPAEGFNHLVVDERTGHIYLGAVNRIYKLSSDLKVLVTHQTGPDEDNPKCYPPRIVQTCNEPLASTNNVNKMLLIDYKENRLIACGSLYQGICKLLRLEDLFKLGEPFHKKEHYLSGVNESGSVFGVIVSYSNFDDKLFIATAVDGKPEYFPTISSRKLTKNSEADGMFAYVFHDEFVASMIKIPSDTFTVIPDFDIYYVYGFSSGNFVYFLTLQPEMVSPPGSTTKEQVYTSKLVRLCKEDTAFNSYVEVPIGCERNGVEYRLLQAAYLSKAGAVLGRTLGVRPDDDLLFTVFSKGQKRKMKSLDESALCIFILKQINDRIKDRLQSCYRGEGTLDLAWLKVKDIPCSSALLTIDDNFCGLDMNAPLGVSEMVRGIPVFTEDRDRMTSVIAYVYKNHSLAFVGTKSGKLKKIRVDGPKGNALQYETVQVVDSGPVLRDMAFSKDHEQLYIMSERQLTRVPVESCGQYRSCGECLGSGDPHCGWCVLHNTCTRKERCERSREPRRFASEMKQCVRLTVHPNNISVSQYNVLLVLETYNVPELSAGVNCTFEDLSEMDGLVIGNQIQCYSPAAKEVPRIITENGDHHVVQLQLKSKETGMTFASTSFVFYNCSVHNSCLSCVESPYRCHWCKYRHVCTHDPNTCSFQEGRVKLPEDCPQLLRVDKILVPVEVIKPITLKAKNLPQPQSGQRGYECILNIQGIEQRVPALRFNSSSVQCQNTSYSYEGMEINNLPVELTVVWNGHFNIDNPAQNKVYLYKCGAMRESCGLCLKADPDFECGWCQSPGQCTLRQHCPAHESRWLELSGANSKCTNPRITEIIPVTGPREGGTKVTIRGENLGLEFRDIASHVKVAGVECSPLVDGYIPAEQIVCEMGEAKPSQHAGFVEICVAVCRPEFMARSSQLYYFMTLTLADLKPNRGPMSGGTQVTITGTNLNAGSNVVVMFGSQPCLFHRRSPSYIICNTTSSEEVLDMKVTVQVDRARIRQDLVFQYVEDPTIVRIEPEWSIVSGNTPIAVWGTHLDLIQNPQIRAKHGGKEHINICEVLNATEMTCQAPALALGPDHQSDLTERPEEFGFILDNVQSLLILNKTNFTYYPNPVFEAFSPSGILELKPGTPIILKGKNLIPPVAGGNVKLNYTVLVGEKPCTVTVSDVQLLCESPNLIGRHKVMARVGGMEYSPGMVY

B1: Nrp1-a1a2b1b2 A252E (receptor, mouse, UniProt P97333 22-588, looked up)
chain: FRSDKCGGTIKIENPGYLTSPGYPHSYHPSEKCEWLIQAPEPYQRIMINFNPHFDLEDRDCKYDYVEVIDGENEGGRLWGKFCGKIAPSPVVSSGPFLFIKFVSDYETHGAGFSIRYEIFKRGPECSQNYTAPTGVIKSPGFPEKYPNSLECTYIIFAPKMSEIILEFESFDLEQDSNPPGGMFCRYDRLEIWDGFPEVGPHIGRYCGQKTPGRIRSSSGVLSMVFYTDSEIAKEGFSANYSVLQSSISEDFKCMEALGMESGEIHSDQITASSQYGTNWSVERSRLNYPENGWTPGEDSYKEWIQVDLGLLRFVTAVGTQGAISKETKKKYYVKTYRVDISSNGEDWISLKEGNKAIIFQGNTNPTDVVLGVFSKPLITRFVRIKPVSWETGISMRFEVYGCKITDYPCSGMLGMVSGLISDSQITASNQADRNWMPENIRLVTSRTGWALPPSPHPYTNEWLQVDLGDEKIVRGVIIQGGKHRENKVFMRKFKIAYSNNGSDWKTIMDDSKRKAKSFEGNNNYDTPELRTFSPLSTRFIRIYPERATHSGLGLRMELLGCEVEAP
notes: mouse Neuropilin 1 residues 22–588 (a1a2b1b2) with A252E; also called Nrp1-A252E; A252E mutant; source: Expi293F, purified from medium (Ni-NTA, Superose 6)
B2: Nrp1-a1a2b1b2 E128R (receptor, mouse, UniProt P97333 22-588, looked up)
chain: FRSDKCGGTIKIENPGYLTSPGYPHSYHPSEKCEWLIQAPEPYQRIMINFNPHFDLEDRDCKYDYVEVIDGENEGGRLWGKFCGKIAPSPVVSSGPFLFIKFVSDYRTHGAGFSIRYEIFKRGPECSQNYTAPTGVIKSPGFPEKYPNSLECTYIIFAPKMSEIILEFESFDLEQDSNPPGGMFCRYDRLEIWDGFPEVGPHIGRYCGQKTPGRIRSSSGVLSMVFYTDSAIAKEGFSANYSVLQSSISEDFKCMEALGMESGEIHSDQITASSQYGTNWSVERSRLNYPENGWTPGEDSYKEWIQVDLGLLRFVTAVGTQGAISKETKKKYYVKTYRVDISSNGEDWISLKEGNKAIIFQGNTNPTDVVLGVFSKPLITRFVRIKPVSWETGISMRFEVYGCKITDYPCSGMLGMVSGLISDSQITASNQADRNWMPENIRLVTSRTGWALPPSPHPYTNEWLQVDLGDEKIVRGVIIQGGKHRENKVFMRKFKIAYSNNGSDWKTIMDDSKRKAKSFEGNNNYDTPELRTFSPLSTRFIRIYPERATHSGLGLRMELLGCEVEAP
notes: mouse Neuropilin 1 residues 22–588 (a1a2b1b2) with E128R; also called Nrp1-E128R; source: Expi293F, purified from medium (Ni-NTA, Superose 6)
B3: Nrp1-a1a2b1b2 S251E (receptor, mouse, UniProt P97333 22-588, looked up)
chain: FRSDKCGGTIKIENPGYLTSPGYPHSYHPSEKCEWLIQAPEPYQRIMINFNPHFDLEDRDCKYDYVEVIDGENEGGRLWGKFCGKIAPSPVVSSGPFLFIKFVSDYETHGAGFSIRYEIFKRGPECSQNYTAPTGVIKSPGFPEKYPNSLECTYIIFAPKMSEIILEFESFDLEQDSNPPGGMFCRYDRLEIWDGFPEVGPHIGRYCGQKTPGRIRSSSGVLSMVFYTDEAIAKEGFSANYSVLQSSISEDFKCMEALGMESGEIHSDQITASSQYGTNWSVERSRLNYPENGWTPGEDSYKEWIQVDLGLLRFVTAVGTQGAISKETKKKYYVKTYRVDISSNGEDWISLKEGNKAIIFQGNTNPTDVVLGVFSKPLITRFVRIKPVSWETGISMRFEVYGCKITDYPCSGMLGMVSGLISDSQITASNQADRNWMPENIRLVTSRTGWALPPSPHPYTNEWLQVDLGDEKIVRGVIIQGGKHRENKVFMRKFKIAYSNNGSDWKTIMDDSKRKAKSFEGNNNYDTPELRTFSPLSTRFIRIYPERATHSGLGLRMELLGCEVEAP
notes: mouse Neuropilin 1 residues 22–588 (a1a2b1b2) with S251E; also called Nrp1-S251E; source: Expi293F, purified from medium (Ni-NTA, Superose 6)
B4: Nrp1-a1a2b1b2 H74A (receptor, mouse, UniProt P97333 22-588, looked up)
chain: FRSDKCGGTIKIENPGYLTSPGYPHSYHPSEKCEWLIQAPEPYQRIMINFNPAFDLEDRDCKYDYVEVIDGENEGGRLWGKFCGKIAPSPVVSSGPFLFIKFVSDYETHGAGFSIRYEIFKRGPECSQNYTAPTGVIKSPGFPEKYPNSLECTYIIFAPKMSEIILEFESFDLEQDSNPPGGMFCRYDRLEIWDGFPEVGPHIGRYCGQKTPGRIRSSSGVLSMVFYTDSAIAKEGFSANYSVLQSSISEDFKCMEALGMESGEIHSDQITASSQYGTNWSVERSRLNYPENGWTPGEDSYKEWIQVDLGLLRFVTAVGTQGAISKETKKKYYVKTYRVDISSNGEDWISLKEGNKAIIFQGNTNPTDVVLGVFSKPLITRFVRIKPVSWETGISMRFEVYGCKITDYPCSGMLGMVSGLISDSQITASNQADRNWMPENIRLVTSRTGWALPPSPHPYTNEWLQVDLGDEKIVRGVIIQGGKHRENKVFMRKFKIAYSNNGSDWKTIMDDSKRKAKSFEGNNNYDTPELRTFSPLSTRFIRIYPERATHSGLGLRMELLGCEVEAP
notes: mouse Neuropilin 1 residues 22–588 (a1a2b1b2) with H74A; also called H74A mutation of Nrp1; source: Expi293F, purified from medium (Ni-NTA, Superose 6)
B5: Sema3A (21–770) F386A (ligand, mouse, UniProt O08665 21-770, looked up)
chain: NYANGKNNVPRLKLSYKEMLESNNVITFNGLANSSSYHTFLLDEERSRLYVGAKDHIFSFNLVNIKDFQKIVWPVSYTRRDECKWAGKDILKECANFIKVLEAYNQTHLYACGTGAFHPICTYIEVGHHPEDNIFKLQDSHFENGRGKSPYDPKLLTASLLIDGELYSGTAADFMGRDFAIFRTLGHHHPIRTEQHDSRWLNDPRFISAHLIPESDNPEDDKVYFFFRENAIDGEHSGKATHARIGQICKNDFGGHRSLVNKWTTFLKARLICSVPGPNGIDTHFDELQDVFLMNSKDPKNPIVYGVFTTSSNIFKGSAVCMYSMSDVRRVFLGPYAHRDGPNYQWVPYQGRVPYPRPGTCPSKTAGGFDSTKDLPDDVITFARSHPAMYNPVFPINNRPIMIKTDVNYQFTQIVVDRVDAEDGQYDVMFIGTDVGTVLKVVSVPKETWHDLEEILLEEMTVFREPTTISAMELSTKQQQLYIGSTAGVAQLPLHRCDIYGKACAECCLARDPYCAWDGSSCSRYFPTAKARTRAQDIRNGDPLTHCSDLQHHDNHHGPSLEERIIYGVENSSTFLECSPKSQRALVYWQFQRRNEDRKEEIRMGDHIIRTEQGLLLRSLQKKDSGNYLCHAVEHGFMQTLLKVTLEVIDTEHLEELLHKDDDGDGSKIKEMSSSMTPSQKVWYRDFMQLINHPNLNTMDEFCEQVWKRDAAQAAQRPGHSQGSSNKWKHMQESKKGANRATHEFERAPR
notes: mouse Sema3A residues 21–770 with F386A; internal furin sites mutated; without A106K; also called F386A mutation of Sema3A; source: Expi293F, purified from medium (Ni-NTA, Superose 6)
B6: Sema3A (21–770) K497E (ligand, mouse, UniProt O08665 21-770, looked up)
chain: NYANGKNNVPRLKLSYKEMLESNNVITFNGLANSSSYHTFLLDEERSRLYVGAKDHIFSFNLVNIKDFQKIVWPVSYTRRDECKWAGKDILKECANFIKVLEAYNQTHLYACGTGAFHPICTYIEVGHHPEDNIFKLQDSHFENGRGKSPYDPKLLTASLLIDGELYSGTAADFMGRDFAIFRTLGHHHPIRTEQHDSRWLNDPRFISAHLIPESDNPEDDKVYFFFRENAIDGEHSGKATHARIGQICKNDFGGHRSLVNKWTTFLKARLICSVPGPNGIDTHFDELQDVFLMNSKDPKNPIVYGVFTTSSNIFKGSAVCMYSMSDVRRVFLGPYAHRDGPNYQWVPYQGRVPYPRPGTCPSKTFGGFDSTKDLPDDVITFARSHPAMYNPVFPINNRPIMIKTDVNYQFTQIVVDRVDAEDGQYDVMFIGTDVGTVLKVVSVPKETWHDLEEILLEEMTVFREPTTISAMELSTEQQQLYIGSTAGVAQLPLHRCDIYGKACAECCLARDPYCAWDGSSCSRYFPTAKARTRAQDIRNGDPLTHCSDLQHHDNHHGPSLEERIIYGVENSSTFLECSPKSQRALVYWQFQRRNEDRKEEIRMGDHIIRTEQGLLLRSLQKKDSGNYLCHAVEHGFMQTLLKVTLEVIDTEHLEELLHKDDDGDGSKIKEMSSSMTPSQKVWYRDFMQLINHPNLNTMDEFCEQVWKRDAAQAAQRPGHSQGSSNKWKHMQESKKGANRATHEFERAPR
notes: mouse Sema3A residues 21–770 with K497E; internal furin sites mutated; without A106K; also called Sema3A-K497E; Seme3A-K497E; source: Expi293F, purified from medium (Ni-NTA, Superose 6)

Target: T1, FLAG-tagged PlexinA4 extracellular …
Experiment: pull-down; FLAG-tagged PlexinA4 (20 µg) on anti-FLAG antibody resin; Nrp1 and Sema3A, 30 µg each, added together; 20 mM HEPES (pH 7.5), 150 mM NaCl, 1 mM CaCl2, 4 °C, 1 h; SDS-PAGE, Coomassie blue
Settings: both partners purified

Binding result, binds:
B1
B2
B3
B4
B5
B6
